US20250043302A1, “MUTATED HYDROXYPHENYLPYRUVATE DIOXYGENASE POLYPEPTIDE, AND CODING GENE AND USE THEREOF” (BEIJING DABEINONG BIOTECHNOLOGY CO., LTD., priority 2021, published 2025)

Experiments:
[1] = tested on: Arabidopsis thaliana T1 plants; assay: Mesotrione tolerance of transgenic Arabidopsis thaliana T1 plants (spray, bleached leaf area grade, damage score); format: in vivo; parameters: Scores: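 damage score 0-100 computed as Σ(N×S)/(T×M)×100 over grades 0-3 with higher meaning more damage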; conditions: for Classification and statistics of the grade of pesticide damage Grade 0 / Classification and statistics of the grade of pesticide damage Grade 1 / Classification and statistics of the grade of pesticide damage Grade 2 / Classification and statistics of the grade of pesticide damage Grade 3: number of plants in grade
Summary of the method: (§1)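 Read-out: per-plant damage grade 0–3 from proportion of bleached leaf area at 7 DAT (1 <50%, 2 >50%, 3 100%). Plants were T1 transformants, glufosinate-selected, plus wild-type CK, sprayed 18 days post-sowing. Rates: topramezone 25–200, isoxaflutole 35–280, mesotrione 52.5–420 g ai/ha.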

[2] = tested on: Arabidopsis thaliana T1 plants; assay: Isoxaflutole tolerance of transgenic Arabidopsis thaliana T1 plants (spray, bleached leaf area grade, damage score); format: in vivo; conditions: for Classification and statistics of the grade of pesticide damage Grade 0 / Classification and statistics of the grade of pesticide damage Grade 1 / Classification and statistics of the grade of pesticide damage Grade 2 / Classification and statistics of the grade of pesticide damage Grade 3: number of plants in grade;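 for Scores: Weighted damage index from 0 to 100 where higher means more damage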
Summary of the method: as §1

B1: AsHPPDm-F383Y-02: nucleotide sequence encoding Avena sativa HPPD with F383Y; vector DBN11795 (nucleic acid)
DNA: ATGCCACCTACTCCAGCTACAGCTACTGGTGCTGCTGCTGCTGCCGTTACTCCTGAGCACGCTGCCAGGTCATTCCCCAGGGTGGTTCGCGTGAACCCCAGATCTGATAGGTTCCCAGTTCTGAGCTTCCACCATGTTGAGCTGTGGTGCGCTGATGCTGCTTCTGCTGCTGGCAGGTTCTCTTTCGCTCTTGGTGCTCCACTCGCTGCTAGATCTGATCTGTCTACAGGAAATAGCGCTCATGCCTCACTCCTGCTTCGCTCAGGTGCTTTGGCCTTCCTCTTCACCGCTCCATATGCTCCCCCACCTCAGGAGGCTGCTACTGCTGCTGCTACAGCCTCCATTCCAAGCTTCTCAGCTGATGCCGCTAGAACCTTCGCTGCTGCTCATGGACTTGCCGTGAGGTCTGTTGGTGTTCGCGTGGCTGATGCTGCTGAGGCTTTCAGAGTTTCCGTTGCCGGCGGAGCTAGGCCAGCTTTCGCTCCTGCTGATTTGGGACATGGTTTCGGCCTGGCTGAGGTTGAGCTTTACGGTGACGTGGTTCTCCGCTTCGTGTCTTACCCAGATGAGACTGACCTGCCTTTCCTTCCCGGCTTCGAGAGAGTTTCCTCTCCTGGTGCCGTGGATTACGGCCTGACAAGGTTCGACCACGTGGTTGGAAACGTTCCCGAGATGGCTCCAGTGATCGATTACATGAAGGGCTTCCTTGGATTCCATGAGTTCGCCGAGTTCACTGCTGAGGACGTGGGAACCACTGAGTCCGGTTTGAACTCTGTGGTTCTCGCCAACAATTCTGAGGCTGTTTTGCTCCCTCTGAATGAGCCTGTGCATGGAACCAAGAGGAGAAGCCAGATTCAAACTTACCTGGAGTACCACGGTGGCCCTGGAGTTCAGCATATCGCCCTTGCTTCTAATGATGTGTTGCGCACACTCAGAGAGATGCGCGCCAGAACCCCCATGGGAGGTTTCGAGTTCATGGCCCCACCACAGGCTAAGTACTACGAGGGCGTTAGAAGGATTGCTGGAGACGTGTTGAGCGAGGAGCAGATCAAGGAGTGCCAAGAGCTGGGTGTTCTTGTGGATAGGGATGACCAGGGCGTTCTGCTTCAAATTTTCACTAAGCCAGTGGGCGACCGCCCTACATTCTATCTTGAGATGATTCAAAGAATCGGCTGCATGGAGAAGGATGAGGTTGGACAGGAGTACCAAAAGGGCGGATGCGGTGGCTTCGGAAAGGGTAACTTCAGCGAGTTGTTCAAGTCAATCGAGGACTACGAGAAGAGCCTCGAGGTGAAGCAGTCAGTGGTTGCCCAAAAGTCCTGA
modifications: AsHPPDm-F383Y-02 Nucleotide Sequence
notes: vector DBN11795
- Resistance evaluation ([1]; mesotrione 210 g ai/ha): Non-resistant
- Scores ([1]; mesotrione 210 g ai/ha): 100
- Classification and statistics of the grade of pesticide damage Grade 0 ([1]; mesotrione 210 g ai/ha): 0
- Classification and statistics of the grade of pesticide damage Grade 1 ([1]; mesotrione 210 g ai/ha): 0
- Classification and statistics of the grade of pesticide damage Grade 2 ([1]; mesotrione 210 g ai/ha): 0
- Classification and statistics of the grade of pesticide damage Grade 3 ([1]; mesotrione 210 g ai/ha): 16
- Resistance evaluation ([1]; mesotrione 420 g ai/ha): Non-resistant
- Scores ([1]; mesotrione 420 g ai/ha): 100
- Classification and statistics of the grade of pesticide damage Grade 0 ([1]; mesotrione 420 g ai/ha): 0
- Classification and statistics of the grade of pesticide damage Grade 1 ([1]; mesotrione 420 g ai/ha): 0
- Classification and statistics of the grade of pesticide damage Grade 2 ([1]; mesotrione 420 g ai/ha): 0
- Classification and statistics of the grade of pesticide damage Grade 3 ([1]; mesotrione 420 g ai/ha): 16
- Resistance evaluation ([2]; isoxaflutole 140 g ai/ha): Non-resistant
- Scores ([2]; isoxaflutole 140 g ai/ha): 100
- Classification and statistics of the grade of pesticide damage Grade 0 ([2]; isoxaflutole 140 g ai/ha): 0
- Classification and statistics of the grade of pesticide damage Grade 1 ([2]; isoxaflutole 140 g ai/ha): 0
- Classification and statistics of the grade of pesticide damage Grade 2 ([2]; isoxaflutole 140 g ai/ha): 0
- Classification and statistics of the grade of pesticide damage Grade 3 ([2]; isoxaflutole 140 g ai/ha): 16
- Resistance evaluation ([2]; isoxaflutole 280 g ai/ha): Non-resistant
- Scores ([2]; isoxaflutole 280 g ai/ha): 100
- Classification and statistics of the grade of pesticide damage Grade 0 ([2]; isoxaflutole 280 g ai/ha): 0
- Classification and statistics of the grade of pesticide damage Grade 1 ([2]; isoxaflutole 280 g ai/ha): 0
- Classification and statistics of the grade of pesticide damage Grade 2 ([2]; isoxaflutole 280 g ai/ha): 0
- Classification and statistics of the grade of pesticide damage Grade 3 ([2]; isoxaflutole 280 g ai/ha): 16

B2: AsHPPDm-F372A-F383Y-02: nucleotide sequence encoding Avena sativa HPPD with F372A+F383Y; vector DBN11796 (nucleic acid)
DNA: ATGCCACCTACTCCAGCTACAGCTACTGGTGCTGCTGCTGCTGCCGTTACTCCTGAGCACGCTGCCAGGTCATTCCCCAGGGTGGTTCGCGTGAACCCCAGATCTGATAGGTTCCCAGTTCTGAGCTTCCACCATGTTGAGCTGTGGTGCGCTGATGCTGCTTCTGCTGCTGGCAGGTTCTCTTTCGCTCTTGGTGCTCCACTCGCTGCTAGATCTGATCTGTCTACAGGAAATAGCGCTCATGCCTCACTCCTGCTTCGCTCAGGTGCTTTGGCCTTCCTCTTCACCGCTCCATATGCTCCCCCACCTCAGGAGGCTGCTACTGCTGCTGCTACAGCCTCCATTCCAAGCTTCTCAGCTGATGCCGCTAGAACCTTCGCTGCTGCTCATGGACTTGCCGTGAGGTCTGTTGGTGTTCGCGTGGCTGATGCTGCTGAGGCTTTCAGAGTTTCCGTTGCCGGCGGAGCTAGGCCAGCTTTCGCTCCTGCTGATTTGGGACATGGTTTCGGCCTGGCTGAGGTTGAGCTTTACGGTGACGTGGTTCTCCGCTTCGTGTCTTACCCAGATGAGACTGACCTGCCTTTCCTTCCCGGCTTCGAGAGAGTTTCCTCTCCTGGTGCCGTGGATTACGGCCTGACAAGGTTCGACCACGTGGTTGGAAACGTTCCCGAGATGGCTCCAGTGATCGATTACATGAAGGGCTTCCTTGGATTCCATGAGTTCGCCGAGTTCACTGCTGAGGACGTGGGAACCACTGAGTCCGGTTTGAACTCTGTGGTTCTCGCCAACAATTCTGAGGCTGTTTTGCTCCCTCTGAATGAGCCTGTGCATGGAACCAAGAGGAGAAGCCAGATTCAAACTTACCTGGAGTACCACGGTGGCCCTGGAGTTCAGCATATCGCCCTTGCTTCTAATGATGTGTTGCGCACACTCAGAGAGATGCGCGCCAGAACCCCCATGGGAGGTTTCGAGTTCATGGCCCCACCACAGGCTAAGTACTACGAGGGCGTTAGAAGGATTGCTGGAGACGTGTTGAGCGAGGAGCAGATCAAGGAGTGCCAAGAGCTGGGTGTTCTTGTGGATAGGGATGACCAGGGCGTTCTGCTTCAAATTGCCACTAAGCCAGTGGGCGACCGCCCTACATTCTATCTTGAGATGATTCAAAGAATCGGCTGCATGGAGAAGGATGAGGTTGGACAGGAGTACCAAAAGGGCGGATGCGGTGGCTTCGGAAAGGGTAACTTCAGCGAGTTGTTCAAGTCAATCGAGGACTACGAGAAGAGCCTCGAGGTGAAGCAGTCAGTGGTTGCCCAAAAGTCCTGA
modifications: AsHPPDm-F372A-F383Y-02 Nucleotide Sequence
notes: vector DBN11796
- Resistance evaluation ([1]; mesotrione 210 g ai/ha): Moderately
- Scores ([1]; mesotrione 210 g ai/ha): 33
- Classification and statistics of the grade of pesticide damage Grade 0 ([1]; mesotrione 210 g ai/ha): 5
- Classification and statistics of the grade of pesticide damage Grade 1 ([1]; mesotrione 210 g ai/ha): 6
- Classification and statistics of the grade of pesticide damage Grade 2 ([1]; mesotrione 210 g ai/ha): 5
- Classification and statistics of the grade of pesticide damage Grade 3 ([1]; mesotrione 210 g ai/ha): 0
- Resistance evaluation ([1]; mesotrione 420 g ai/ha): Poorly resistant
- Scores ([1]; mesotrione 420 g ai/ha): 52
- Classification and statistics of the grade of pesticide damage Grade 0 ([1]; mesotrione 420 g ai/ha): 0
- Classification and statistics of the grade of pesticide damage Grade 1 ([1]; mesotrione 420 g ai/ha): 8
- Classification and statistics of the grade of pesticide damage Grade 2 ([1]; mesotrione 420 g ai/ha): 7
- Classification and statistics of the grade of pesticide damage Grade 3 ([1]; mesotrione 420 g ai/ha): 1
- Resistance evaluation ([2]; isoxaflutole 140 g ai/ha): Moderately
- Scores ([2]; isoxaflutole 140 g ai/ha): 33
- Classification and statistics of the grade of pesticide damage Grade 0 ([2]; isoxaflutole 140 g ai/ha): 5
- Classification and statistics of the grade of pesticide damage Grade 1 ([2]; isoxaflutole 140 g ai/ha): 6
- Classification and statistics of the grade of pesticide damage Grade 2 ([2]; isoxaflutole 140 g ai/ha): 5
- Classification and statistics of the grade of pesticide damage Grade 3 ([2]; isoxaflutole 140 g ai/ha): 0
- Resistance evaluation ([2]; isoxaflutole 280 g ai/ha): Poorly
- Scores ([2]; isoxaflutole 280 g ai/ha): 67
- Classification and statistics of the grade of pesticide damage Grade 0 ([2]; isoxaflutole 280 g ai/ha): 0
- Classification and statistics of the grade of pesticide damage Grade 1 ([2]; isoxaflutole 280 g ai/ha): 0
- Classification and statistics of the grade of pesticide damage Grade 2 ([2]; isoxaflutole 280 g ai/ha): 16
- Classification and statistics of the grade of pesticide damage Grade 3 ([2]; isoxaflutole 280 g ai/ha): 0
